Results reported in the supplement of paper PMC7125110.
± gives the standard error. Fewer inactive variants are shown than the library holds.

B1: glmS ribozyme (parent)
chain: AUAAAAGCGCCAGAACUACAGAAAUGUAGUUGACGAGGAGGAGGUUUAUCGAAUUUUCGGCGGAUGCCUCCAAA

How the values were obtained:
Details in all cases: with glucosamine-6-phosphate
glucosamine-6-phosphate [1] = variants of: B1; test: self-cleavage kobs at 160 uM GlcN6P; higher = faster cleavage; RNA array
In short: (§1)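 Glucosamine-6-phosphate (40 μM to 10 mM) in HEPES/KCl/Mg(OAc)2 buffer was flowed over sequenced MiSeq chips, and tiles were imaged over ~14 h. Barcoded ribozyme variants there had been transcribed in situ by E. coli RNA polymerase and were tracked through a hybridised Cy3 probe at 37 °C. One- or two-exponential decay fits to per-tile medians, normalised to baseline and to non-cleaving reference variants, gave kobs. kcat and KM came from weighted Michaelis–Menten fits across concentrations.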

glucosamine-6-phosphate [2] = variants of: B1; test: self-cleavage kobs at 640 uM GlcN6P; higher = faster cleavage; RNA array
In short: as §1

glucosamine-6-phosphate [3] = variants of: B1; test: self-cleavage kobs at 2500 uM GlcN6P; higher = faster cleavage; RNA array
In short: as §1

glucosamine-6-phosphate [4] = variants of: B1; test: self-cleavage kobs at 10000 uM GlcN6P; higher = faster cleavage; RNA array
In short: as §1

| Variant | self-cleavage kobs at 160 uM GlcN6P (glucosamine-6-phosphate [1]) [s⁻¹] | self-cleavage kobs at 640 uM GlcN6P (glucosamine-6-phosphate [2]) [s⁻¹] | self-cleavage kobs at 2500 uM GlcN6P (glucosamine-6-phosphate [3]) [s⁻¹] | self-cleavage kobs at 10000 uM GlcN6P (glucosamine-6-phosphate [4]) [s⁻¹] |
| --- | --- | --- | --- | --- |
| G9C G29U C50G C70G | 0.000652 ± 0.00019 | 0.000131 ± 4.2e-05 | 0.000253 ± 9.9e-05 |  |
| G41U G63A C71U | < 1e-05 |  |  |  |
| C11U A14C A39G U69A | < 1e-05 |  |  |  |
| G35A U57A | < 1e-05 | < 1e-05 | < 1e-05 | < 1e-05 |
| C8A C34A G59U A64G |  | < 1e-05 | < 1e-05 |  |
| G29U U55A A64G |  | 0.000889 ± 0.00022 | 0.00375 ± 0.00061 |  |
| A15C U56A U65G |  | 5.97e-05 ± 2.3e-05 | 0.000177 ± 6.3e-05 | 0.000562 ± 0.00012 |
| G32C C34U A36U C61U | < 1e-05 | < 1e-05 |  |  |
| C8A G44C C68A C71G | < 1e-05 |  |  |  |
| C11G G29U A42C |  | < 1e-05 | < 1e-05 |  |
| A12C G35C | < 1e-05 | < 1e-05 | < 1e-05 |  |
| G7A G13C A14G U69G |  | < 1e-05 | < 1e-05 |  |
| G40A A48U U56A G59U C68A |  | < 1e-05 | < 1e-05 |  |
| C10G U55A | < 1e-05 | < 1e-05 |  |  |
| C11U G13C G37C |  | < 1e-05 | < 1e-05 | < 1e-05 |
| G7C G41U C67G |  | < 1e-05 |  |  |
| C11A A53U U69C C71U |  | 0.000106 ± 4.9e-05 | 5.97e-05 ± 2.3e-05 |  |
| G41C U47G G59U |  | < 1e-05 | < 1e-05 |  |
| G32C C71U | < 1e-05 |  | 2.98e-05 ± 1.2e-05 | 9.6e-05 ± 1e-05 |
| A12U A48C G51U C71U |  | < 1e-05 |  |  |
| G9U G44C G63U |  | < 1e-05 | < 1e-05 |  |
| A14G A15C U31C G40C U54A |  | 4.07e-05 ± 1e-05 | 0.000142 ± 3.5e-05 | 5.3e-05 ± 1.6e-05 |
| A6G A12C U56A |  | 5.6e-05 ± 1.6e-05 | 0.000102 ± 2.1e-05 |  |
| G9A C11G A12G A15U C16A U30C G32A A48G G59U G60U | < 1e-05 |  | < 1e-05 |  |
| G32A G37C C61U C67U |  | < 1e-05 |  |  |
| C8A G35C G66U A72G |  | < 1e-05 |  |  |
| G29C U30C G66U |  | < 1e-05 |  |  |
| G35A C70G | < 1e-05 | < 1e-05 |  |  |
| A6C G9A G37A G51C |  | < 1e-05 |  |  |
